Results published in patent US6528620B1, “Sid-polyamide fusions: a potent method of regulating gene expression” (University of Utah Research Foundation, priority 1999, dated 2003).
Where no end group is shown, it is not given here.

B1: GALSID(8-20) WT: amino acids 8-20 from Mad1 fused to the GAL4 DNA binding domain (protein)
chain: MKLLSSIEQACDICRLKKLKCSKEKPKCAKCLKNNWECRYSPKTKRSPLTRAHLTEVESRLERLEQLFLLIFPREDLDMILKMDSLQDIKALLTGLFVQDNVNKDAVTDRLASVETDMPLTLRQHRISATSSSEESSNKGQRQLTVSNIQMLLEAADYLE
B2: fusion between the first 35 amino acids of Mad1 and the GALDBD: first 35 amino acids of Mad1 fused to the GAL4 DNA binding domain (protein)
chain: MKLLSSIEQACDICRLKKLKCSKEKPKCAKCLKNNWECRYSPKTKRSPLTRAHLTEVESRLERLEQLFLLIFPREDLDMILKMDSLQDIKALLTGLFVQDNVNKDAVTDRLASVETDMPLTLRQHRISATSSSEESSNKGQRQLTVSMAAAVRMNIQMLLEAADYLERREREAEHGYASMLP

Tested on: GAL4 DNA binding domain-responsive reporter
Experiment: Transcription assay, Gal4-14D luciferase reporter in 293 cells
Type: cell-based
Conditions: relative to the GALDBD alone level, 24 h after transfection
Procedure: Transcription Assays—293 cells were grown in Dulbecco's modified Eagle's medium with 10% defined calf serum (HyClone). 2×10^5 cells were planted on 60-mm dishes and transfected with 200 ng of the Gal4-14D luciferase reporter (Ayer et al., Mol. Cell Biol. 16:5772-5781 (1996)) and 1 μg of the indicated expression vector. Cells harvested 24 h after transfection and luciferase and β-galactosidase activity measured according to the manufacturers' protocols (Promega and Tropix). Each transfection was performed at least twice in triplicate. Error shown is the standard of the mean.
To test whether this minimal thirteen residue interaction domain is sufficient to target a functional mSin3:HDAC corepressor complex to DNA, we fused amino acids 8-20 from Mad1 to the DNA binding domain of the yeast transcriptional activator GAL4 (GALDBD). The transcriptional activity of GALSID(8-20) WT was tested on a reporter containing four GAL4 binding sites cloned upstream of a minimal promoter (FIG. 6A). Consistent with our previous findings (Ayer et al., Mol. Cell. Biol. 16:5772-5781 (1996)), the GALDBD alone activates this reporter approximately 3-fold, and a fusion between the first 35 amino acids of Mad1 and the GALDBD repressed this level of reporter activity approximately 7-fold. […] Amino acids 10, 14, and 17 of the SID can be mutated to alanine without adversely affecting the interaction with PAH2 (FIG. 3). However, it is possible that these residues constitute a surface that interacts with other components of the mSin3-HDAC complex and/or components of the general transcriptional machinery. To test whether mutation of these residues may impair the ability of the SID to recruit a functional corepressor complex, we constructed a minimal SID containing the mutations Q10A, E14A, and D17A in the context of a GALDBD fusion (FIG. 6A).

| Molecule | repression of reporter activity | repression of reporter activity (listed as minimal thirteen amino acid SID) |
| --- | --- | --- |
| GALSID Q10A, E14A, D17A: minimal SID containing the mutations Q10A, E14A, and D17A in the context of a GALDBD fusion (NIAMLLAAAAYLE; also: GAL4 DNA binding domain fusion; UniProt Q05195 8-20, looked up, variant Q10A E14A D17A) | repressed transcription to the same extent as the wild-type minimal SID | – |
| B1 | repressed transcription to approximately the same level | functions similarly to the longer 35-amino acid SID |
| B2 | approximately 7 fold | – |
